Experimental findings from patent US12539289B2, “Phorbol ester compositions and methods of use for treating or reducing the duration of cytopenia” (BIOSUCCESS BIOTECH CO., LTD., priority 2014, dated 2026) are described below.

In one assay the test system is Drug Induced Cytopenia. Kind of assay: Drug induced cytopenia treated by TPA: blood cell counts after DNR + Ara-C. In kind it is in vivo, mice. The conditions noted are these: n = 10. The procedure: Ninety (90) adult mice were randomly assigned to 9 groups (10 mice per group). No drug was administered in Control group. Model group was given DNR (6 mg/kg)+Ara-C (150 mg/kg) on Day 0. The rest of the 7 groups were given DNR (6 mg/kg)+Ara-C (150 mg/kg) on Day 0, and each group on Day 7, Day 8, and Day 9 was administered with one of the following drugs: G-CSF (10 μg/kg), EPO (500 IU/kg), TPA (12.5 μg/kg), TPA (25 μg/kg), TPA (50 μg/kg), TPA (12.5 μg/kg)+GCSF (10 μg/kg), or TPA (12.5 μg/kg)+EPO (500 IU/kg).

Assay [1] concerns Human bone marrow cells from the same AML patient after chemotherapy. Kind of assay: Colony formation of bone marrow hematopoietic cells in methyl cellulose semi-solid culture medium. The class given is cell-based. On the procedure: (§1) To explore the effect of TPA alone or combined rhG-CSF on bone marrow hematopoietic cells proliferation and colony formation ability which from patients of acute myeloid leukemia (AML) in the period of bone marrow suppression in vitro and to observe the effect of TPA on bone marrow stromal cells(BMSCs) proliferation or inhibition from patients of AML in the period of myelosuppression and the healthy persons.
• 1) Human bone marrow cells from the same AML patient after chemotherapy were cultured by methyl cellulose semi-solid culture medium. Groups: Blank, TPA (10 ng/ml), G-CSF (50 ng/ml), TPA (10 ng/ml)+GCSF (50 ng/ml). The experiments were repeated for 4 times. • 2) The stroma cells of bone marrow from the healthy human and the AML patient after chemotherapy were cultured by methyl cellulose semi-solid culture medium. Different TPA concentrations were added. Groups: Blank, TPA (0.1 ng/ml), TPA (1.0 ng/ml), TPA (5 ng/ml), TPA (10 ng/ml), TPA (20 ng/ml), TPA (30 ng/ml). • 3) Cultivation of BMSCs from healthy persons and patients of AML in the bone marrow suppression phase in vitro, added to TPA of different concentrations, 0.1 ng/ml, 1.0 ng/ml, 5 ng/ml, 10 ng/ml, 20 ng/ml, 30 ng/ml, and set up a control to detect cell proliferation or inhibition with CCK8 method. Results and Conclusion: • 1. Compared the clones of four groups in incomplete medium, in the control group a small cell clusters can be seen for 24-72 hours, but the cells were dead as time prolong. Cultivated 14 days, control group have no clones formation, CFU-GM are dominated for G-CSF group, TPA alone and combination with G-CSF group have myeloid colony formation, while BFU-E and CFU-GEMM. […] Compared the clones of different concentration of TPA stimulation in incomplete medium, the total clones of 5 ng/ml, 10 ng/ml, 20 ng/ml group are higher than other groups, including 10 ng/ml in the highest, there are statistical significance (both P<0.05). While decreasing or increasing TPA concentration can not improve the colony number. The better concentration of TPA to stimulate the colony formation is 5˜20 ng/ml. […] Compared the clones of different concentration of TPA and G-CSF (50 ng/ml) stimulation in incomplete medium. Combination with G-CSF the better concentration of TPA is 1˜10 ng/ml (both P<0.05). Combination with G-CSF the best concentration of TPA is 5 ng/ml and 1 ng/ml. for CFU-GM and CFU-GEMM. The main clone types are myeloid colones, CFU-GM, also have CFU-GEMM and fewer BFU-E. • 4. […] While TPA group and G-CSF group the number of clones of TPA group and G-CSF group have no statistical significance (P=0.577). • 5. […] Meanwhile, TPA promote bone marroe stromal cells from the AML patients proliferation of concentration 5˜30 ng/ml (cell number 2×10^5/ml). 5 ng/ml of TPA is the best concentration of promoting proliferation, and G-CSF had no effect on the growth of BMSCs from healthy persons or AML patients.

In assay [2] the test system is bone marrow stromal cells (BMSCs) from healthy persons. Kind of assay: BMSC proliferation or inhibition, CCK8 method, healthy persons. The class given is cell-based, human. The settings on record: healthy persons. The procedure:
as §1
(§2) • 1) Human bone marrow cells from the same AML patient after chemotherapy were cultured by methyl cellulose semi-solid culture medium. Groups: Blank, TPA (10 ng/ml), G-CSF (50 ng/ml), TPA (10 ng/ml)+GCSF (50 ng/ml). The experiments were repeated for 4 times. • 2) The stroma cells of bone marrow from the healthy human and the AML patient after chemotherapy were cultured by methyl cellulose semi-solid culture medium. Different TPA concentrations were added. Groups: Blank, TPA (0.1 ng/ml), TPA (1.0 ng/ml), TPA (5 ng/ml), TPA (10 ng/ml), TPA (20 ng/ml), TPA (30 ng/ml). • 3) Cultivation of BMSCs from healthy persons and patients of AML in the bone marrow suppression phase in vitro, added to TPA of different concentrations, 0.1 ng/ml, 1.0 ng/ml, 5 ng/ml, 10 ng/ml, 20 ng/ml, 30 ng/ml, and set up a control to detect cell proliferation or inhibition with CCK8 method. Results and Conclusion: • 1. […]
Background: Formazan colour is commonly taken as a measure of viable cells.

In assay [3] the test system is bone marrow stromal cells (BMSCs) from patients of AML in the bone marrow suppression phase. Description: BMSC proliferation or inhibition, CCK8 method, AML patients. The class given is cell-based, human. On the procedure: as §1, §2
Assay [4] relates to neutropenia and thrombocytopenia. Description: AML (M2) patient case after DA regimen chemotherapy. The class given is in vivo, human. The procedure: Patient, diagnosed with AML (M2). Patient's bone marrow myeloblast plus promyelocyte count was about 60%. After they received one standard course of DA regimen (7 Ara C+3 Daunorubicin), their peripheral WBC count dropped to 0.8×10^9/L. They were then administered 150 μg G-CSF each day. After chemotherapy, it took 12 days (duration of neutropenia and thrombocytopenia) to bring both their platelet count and WBC count, including the neutrophil count, back to normal. Their bone marrow myeloblast plus promyelocyte count was about 40%, still way above the normal value (0˜5%). Then, they received their second standard course of DA regimen. After the second course of DA regimen, their peripheral WBC count and platelet count dropped to 0.6×10^9/L and 80×10^9/L respectively. They were then administered TPA plus G-CSF (150 μg TPA followed with 150 μg G-CSF) each day of day 1 and day 2. On day 4 and day 5, they were administered with only 150 μg TPA each day. The WBC counts and neutrophil percentage* in parenthesis were 1.8×10^9/L (39%) on day 3, 6.5×10^9/L (72%) on day 7, and 5.7×10^9/L (77%) on day 14. The estimated duration of neutropenia after chemotherapy was shortened to about 5 days. The platelet counts were 330×10^9/L on day 3, 715×10^9/L on day 7, and 568×10^9/L on day 14. The estimated duration of thrombocytopenia after chemotherapy was shortened to less than 3 days. […]

For the next assay, the system named is neutropenia. Description: Duration of neutropenia after high dose chemotherapy. In kind it is in vivo. The settings on record: stated 'for example'. The source says: For example, the duration of neutropenia after high dose chemotherapy and treatment with GCSF is, for example, about 24±3 days. The combination of TPA and GCSF reduces the duration of neutropenia to about 15±3 days, or about a 25% to 50% reduction in the duration of neutropenia.

Where [5] appears, read: 8 days after DNR + Ara-c, 1 day after 1st dose, G-CSF 10, EPO 500, TPA 12.5, TPA + GCSF 12.5 + 10, TPA + EPO 12.5 + 500 (μg·kg^−1).
Setting [6] is: 9 days after DNR + Ara-c, 1 day after 2nd dose, G-CSF 10, EPO 500, TPA 12.5, TPA + GCSF 12.5 + 10, TPA + EPO 12.5 + 500 (μg·kg^−1).
[7] abbreviates: 10 days after DNR + Ara-c, 1 day after 3rd dose, G-CSF 10, EPO 500, TPA 12.5, TPA + GCSF 12.5 + 10, TPA + EPO 12.5 + 500 (μg·kg^1).

Consider “EPO: erythropoietin, a glycoprotein hormone that controls erythropoiesis, or red blood cell production”, for which, in the assay on Drug Induced Cytopenia (setting [5]), the PLT is 385 ± 19.28^(1)(1)(2)(2) ×10^9/L, the RBC is reported as 7.32 ± 0.10^(1)(1)(2)(2) ×10^12/L and the WBC is given as 3.7 ± 0.69^(1)(1) ×10^9/L. In the assay with Drug Induced Cytopenia (setting [6]), the PLT was 935 ± 43.57^(1)(1)(2)(2) ×10^9/L, the RBC is 6.75 ± 0.69^(1)(1)(2) ×10^12/L and the WBC is 5.52 ± 0.34^(1)(1) ×10^9/L. In the assay on Drug Induced Cytopenia (setting [7]), the PLT is 1469 ± 75.67^(2)(2) ×10^9/L, the RBC was 8.51 ± 0.86^(1)(1)(2)(2)(3)(3) ×10^12/L and the WBC was 6.45 ± 0.41^(3)(3) ×10^9/L.

B1: G-CSF: granulocyte-colony stimulating factor, a glycoprotein that stimulates the bone marrow to produce granulocytes and stem cells (protein, UniProt P09919 31-207, looked up)
Granulocyte …: TPLGPASSLPQSFLLKCLEQVRKIQGDGAALQEKLVSECATYKLCHPEELVLLGHSLGIPWAPLSSCPSQALQLAGCLSQLHSGLFLYQGLLQALEGISPELGPTLDTLQLDVADFATTIWQQMEELGMAPALQPTQGAMPAFASAFQRRAGGVLVASHLQSFLEVSYRVLRHLAQP
In the case of B1, in assay [1] (bone marrow of AML patients in the period of bone marrow suppression, in vitro), the “colony types whose formation is promoted (CFU-GM, CFU-GEMM, BFU-E)” value is “promoted the formation of CFU-GM, but had no effect on CFU-GEMM and BFU-E”. Besides, the “total number of clones” value in assay [1] (incomplete medium, cultivated 14 days, TPA 10 ng/ml, G-CSF 50 ng/ml) is on record as “higher than control group”. Besides, the “effect on the growth of BMSCs” value in assay [2] and in assay [3] was “had no effect” throughout. Besides, the PLT in the assay on Drug Induced Cytopenia (setting [5]) is recorded as 373 ± 76.27^(1)(1)(2)(2) ×10^9/L; in the assay on Drug Induced Cytopenia (setting [6]), 949 ± 65.88^(1)(1)(2)(2) ×10^9/L; in the assay with Drug Induced Cytopenia (setting [7]) it was 1456 ± 91.76^(2)(2) ×10^9/L. For the same molecule, the RBC is reported as 4.94 ± 0.42^(1)(1) ×10^12/L in the assay with Drug Induced Cytopenia (setting [5]), 5.40 ± 0.46^(1)(1) ×10^12/L with Drug Induced Cytopenia (setting [6]) and 5.30 ± 0.34^(1)(1) ×10^12/L in the assay with Drug Induced Cytopenia (setting [7]). For the same molecule, the WBC in the assay on Drug Induced Cytopenia (setting [5]) is recorded as 5.3 ± 0.62^(1)(2)(2) ×10^9/L; in the assay on Drug Induced Cytopenia (setting [6]) it was 6.95 ± 0.44^(2) ×10^9/L; in the assay on Drug Induced Cytopenia (setting [7]) it was 9.14 ± 0.67^(1)(1)(2)(2) ×10^9/L. Moreover, in assay [4] (after first DA course and 150 μg G-CSF each day), the “bone marrow myeloblast plus promyelocyte count” value is given as “about 40%”. In addition, the “duration of neutropenia and thrombocytopenia” value in assay [4] (after first DA course, 150 μg G-CSF each day) turned out to be 12 days. In the assay on neutropenia, the duration of neutropenia result is given as “about 24±3 days”.
